Data published in article PMC5342261, “Boosting of HIV envelope CD4 binding site antibodies with long variable heavy third complementarity determining region in the randomized double blind RV305 HIV-1 vaccine trial” (PLoS Pathogens, 2017).

Tests used:
AE.A244gp120 [1] = biological target: AE.A244gp120 (HIV-1); assay: ELISA; blocking ELISA; AE.A244gp120 on the plate; mAbs diluted 3-fold from 100 ug/mL added for 1 h, wash, biotinylated VRC01 or CH31 for 1 h, streptavidin-HRP; conditions: both partners purified
AE.A244gp120 [2] = biological target: AE.A244gp120 (HIV-1); assay: SPR; conditions: both partners purified

B1: VRC01 (antibody, V domains shown)
VH: QVQLVQSGGQMKKPGESMRISCRASGYEFIDCTLNWIRLAPGKRPEWMGWLKPRGGAVNYARPLQGRVTMTRDVYSDTAFLELRSLTVDDTAVYFCTRGKNCDYNWDFEHWGRGTPVIVSS
VL: EIVLTQSPGTLSLSPGETAIISCRTSQYGSLAWYQQRPGQAPRLVIYSGSTRAAGIPDRFSGSRWGPDYNLTISNLESGDFGVYYCQQYEFFGQGTKVQVD
notes: also called CD4 bs bnAb VRC01
B1: binds (AE.A244gp120 [1]).

B2: DH576 Unmutated Common Ancestor (UCA) (antibody, V domains shown)
VH: QVQLVESGGGVVQPGRSLRLSCAASGFTFSSYGMHWVRQAPGKGLEWVAVISYDGSNKYYADSVKGRFTISRDNSKNTLYLQMNSLRAEDTAVYYCARDRARSSGYFGGIYYYYYGMDVWGQGTTVTVSS
VL: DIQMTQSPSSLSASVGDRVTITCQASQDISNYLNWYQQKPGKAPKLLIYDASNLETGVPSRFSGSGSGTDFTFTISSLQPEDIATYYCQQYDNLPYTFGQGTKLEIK
notes: also called DH576 UCA; UCA of DH576; source: recombinantly expressed
B2: binds (AE.A244gp120 [2]).
